What was measured:
[1] = target: T1, TNF-R2 (a protein having the amino acid sequence, Accession No. M55994 registered at GENBANK) (UniProt P20333 23-257, limits assumed); test: SPR (BIACORE 2000), receptor on sensor tip; grade 4 = two times or more that of recombinant TNF-α
T1 construct: also called TNF receptor with 75 kilo daltons
T1 sequence (looked up): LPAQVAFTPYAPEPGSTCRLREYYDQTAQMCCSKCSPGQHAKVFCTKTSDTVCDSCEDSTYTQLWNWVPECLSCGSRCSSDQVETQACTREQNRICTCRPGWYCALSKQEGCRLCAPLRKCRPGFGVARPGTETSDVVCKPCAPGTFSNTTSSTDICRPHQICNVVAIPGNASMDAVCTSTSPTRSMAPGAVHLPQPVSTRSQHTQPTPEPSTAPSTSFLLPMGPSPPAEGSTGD
Text: (§1) Using the above detector based on surface plasmon resonance effect again, the resulting clones binding to TNF-R1 (or TNF-R2) were subjected to the remaining sensor tip conjugated with TNF-R2 (or TNF-R1) to measure receptor binding affinity and select clones having a variation of receptor binding affinity. […] The resulting DNAs were digested with restrict enzymes NdeI and BamHI to obtain DNA fragments. The resulting DNA fragments were introduced into a plasmid vector containing T7 promoter region, T7 terminator region, ampicillin resistant gene region and ColE1/Ori region (product name “pET-3a”, manufactured by “Novagen®” (EMD Biosciences, Inc.)) at the position of the above restriction sites. The resulting plasmid was introduced into E. coli BL21DE3 strain to obtain a transformed E. coli for producing the TNF mutant proteins. The obtained transformed E. coli was cultured according to usual method and centrifuged to collect E. coli pellet. The resulting pellet was washed twice with TES buffer (pH 8.0) (20 mM Tris-HCl, 10 mM ethylene diamine tetraacetic acid and 0.5 M sodium chloride) and admixed with TES buffer (pH 8.0) containing 0.2 mg/ml lysozyme. The resulting suspension was sonicated according to usual manner, and centrifuged to collect a precipitate containing the produced TNF mutant protein. The resulting precipitate was treated three times in a manner of admixing with TES buffer containing 1 (w/w) % Triton X-100, removed from supernatant by centrifuging, admixed with 50 mM Tris-HCl (pH 7.0) containing 8 M guanidine hydrochloride and 50 mM dithiothreitol, with stirring for 16 hours at ambient temperature under shielded condition, and centrifuged to collect a supernatant. The resulting supernatant was gently admixed with 100 time volumes of a aqueous solution containing 1 M Tris, 0.9 (w/v) % sodium chloride, 0.4 M L-arginine chloride, 2.5 mM reduced glutathione, 0.5 mM oxidized glutathione and 0.05 (w/v) % Tween 20, and kept at 4° C. for 16 hours.

[2] = target: T2, TNF-R1 (a protein having the amino acid sequence, Accession No. M58286 registered at GENBANK) (UniProt P19438 30-211, limits assumed); test: SPR (BIACORE 2000), receptor on sensor tip; grade 1 = 0.001 to 0.1 time that of recombinant TNF-α
T2 construct: also called TNF receptor having a molecular weight of 55 kilo daltons
T2 sequence (looked up): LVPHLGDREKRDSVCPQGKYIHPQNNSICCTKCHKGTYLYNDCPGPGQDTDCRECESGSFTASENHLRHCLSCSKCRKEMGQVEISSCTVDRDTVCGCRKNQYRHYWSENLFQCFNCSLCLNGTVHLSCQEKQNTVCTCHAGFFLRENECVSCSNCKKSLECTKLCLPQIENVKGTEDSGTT
Text: as §1

[3] = target: T2, TNF-R1 (a protein having the amino acid …); test: SPR (BIACORE 2000), receptor on sensor tip; grade 0 = weakened to 0.001 or less of that of recombinant TNF-α
Text: as §1

[4] = target: T1, TNF-R2 (a protein having the amino acid …); test: SPR (BIACORE 2000), receptor on sensor tip; grade 3 = 0.5 to 2 times that of recombinant TNF-α
Text: as §1

[5] = target: T2, TNF-R1 (a protein having the amino acid …); test: SPR (BIACORE 2000), receptor on sensor tip; grade 2 = 0.5 to 0.1 time that of recombinant TNF-α
Text: as §1

TNF-R1 on HEp-2 cells = target: T3, TNF-R1 on HEp-2 cells (human, UniProt P19438 30-455); test: cell-based or functional assay
T3 sequence (looked up): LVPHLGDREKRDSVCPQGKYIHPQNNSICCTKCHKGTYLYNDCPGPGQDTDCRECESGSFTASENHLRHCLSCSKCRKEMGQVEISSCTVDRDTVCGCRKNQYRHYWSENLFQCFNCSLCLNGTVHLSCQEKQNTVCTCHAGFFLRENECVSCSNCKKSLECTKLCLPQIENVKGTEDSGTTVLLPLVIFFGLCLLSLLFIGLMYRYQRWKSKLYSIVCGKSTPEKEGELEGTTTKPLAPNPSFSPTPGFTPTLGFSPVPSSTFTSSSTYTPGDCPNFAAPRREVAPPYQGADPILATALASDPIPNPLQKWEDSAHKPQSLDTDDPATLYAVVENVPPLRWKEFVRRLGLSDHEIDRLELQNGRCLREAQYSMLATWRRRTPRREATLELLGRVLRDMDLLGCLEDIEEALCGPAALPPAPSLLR

TNF-R1 on L-M cells = target: T4, TNF-R1 on L-M cells (mouse, UniProt P25118 30-454); test: cell-based or functional assay
T4 sequence (looked up): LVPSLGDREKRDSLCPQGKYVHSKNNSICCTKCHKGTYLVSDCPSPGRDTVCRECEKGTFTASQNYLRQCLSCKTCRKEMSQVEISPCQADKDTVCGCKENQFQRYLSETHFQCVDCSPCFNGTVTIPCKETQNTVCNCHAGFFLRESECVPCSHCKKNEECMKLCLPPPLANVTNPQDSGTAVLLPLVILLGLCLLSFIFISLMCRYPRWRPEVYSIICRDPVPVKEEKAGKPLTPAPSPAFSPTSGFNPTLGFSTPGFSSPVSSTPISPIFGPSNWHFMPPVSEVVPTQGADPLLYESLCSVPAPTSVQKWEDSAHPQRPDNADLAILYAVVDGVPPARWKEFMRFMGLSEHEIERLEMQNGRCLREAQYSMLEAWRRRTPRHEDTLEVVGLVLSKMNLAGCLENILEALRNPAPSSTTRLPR

[6] = target: T2, TNF-R1 (a protein having the amino acid …); test: SPR (BIACORE 2000), receptor on sensor tip; grade 4 = two times or more that of recombinant TNF-α
Text: as §1

[7] = target: T1, TNF-R2 (a protein having the amino acid …); test: SPR (BIACORE 2000), receptor on sensor tip; grade 0 = weakened to 0.001 or less of that of recombinant TNF-α
Text: as §1

B1: TNF mutant protein of clone No. 10 (ligand)
chain: VRSSSRTPSDMPVAHVVANPQAEGQLQWLNRRANALLANGVELRDNQLVVPSEGLYLIYSQVLFSGQGCPSTHVLLTHTISRIAVSYQTPVNLLSAIRSPCQRETPEGAEANPWYEPIYLGGVFQLEPGDRLSAEINRPDYLDFKDTGQVYFGIIAL
notes: Mutant of lysine-replaced TNF, made in E. coli
- binding affinity relative to recombinant TNF-α [1]: ≥ 2 fold
- binding affinity relative to recombinant TNF-α [2]: 0.001 to 0.1 fold

B2: TNF mutant protein of clone No. 11 (ligand)
chain: VRSSSRTPSDMPVAHVVANPQAEGQLQWLNRRANALLANGVELRDNQLVVPSEGLYLIYSQVLFSGQGCPSTHVLLTHTISRIAVSYQTPVNLLSAIRSPCQRETPEGAEANPWYEPIYLGGVFQLEPGDRLSAEINRPDYLDFRTDGQVYFGIIAL
notes: as for B1
- binding affinity relative to recombinant TNF-α (grade) [3]: ≤ 0.001 times that of recombinant TNF-α
- binding affinity relative to recombinant TNF-α [4]: 0.5 to 2 fold

B3: TNF mutant protein of clone No. 13 (ligand)
chain: VRSSSRTPSDMPVAHVVANPQAEGQLQWLNRRANALLANGVELRDNQLVVPSEGLYLIYSQVLFSGQGCPSTHVLLTHTISRIAVSYQTPVNLLSAIRSPCQRETPEGAEANPWYEPIYLGGVFQLEPGDRLSAEINRPDYLDFADDGQVYFGIIAL
notes: as for B1
- binding affinity relative to recombinant TNF-α [1]: ≥ 2 fold
- binding affinity relative to recombinant TNF-α [5]: 0.1 to 0.5 fold

B4: TNF mutant protein of clone No. 12 (ligand)
chain: VRSSSRTPSDMPVAHVVANPQAEGQLQWLNRRANALLANGVELRDNQLVVPSEGLYLIYSQVLFSGQGCPSTHVLLTHTISRIAVSYQTPVNLLSAIRSPCQRETPEGAEANPWYEPIYLGGVFQLEPGDRLSAEINRPDYLDFRETGQVYFGIIAL
notes: as for B1
- binding affinity relative to recombinant TNF-α [2]: 0.001 to 0.1 fold
- binding affinity relative to recombinant TNF-α [4]: 0.5 to 2 fold

B5: TNF mutant protein of clone No. 35 (ligand)
chain: VRSSSRTPSDMPVAHVVANPQAEGQLQWLNRRANALLANGVELRDNQLVVPSEGLYLIYSQVLFSGQGCPSTHVLLTHTISRITPAINRPVNLLSAIRSPCQRETPEGAEANPWYEPIYLGGVFQLEPGDRLSAEINRPDYLDFAESGQVYFGIIAL
notes: Mutant of lysine-replaced TNF, made in E. coli; also called TNF antagonist of clone No. 35
- Viability (%) of HEp-2 cells, 10 ng/ml TNF-α + 1,000 ng/ml TNF antagonist (9 without antagonist) (TNF-R1 on HEp-2 cells): 10%
- Viability (%) of HEp-2 cells, 10 ng/ml TNF-α + 10,000 ng/ml TNF antagonist (9 without antagonist) (TNF-R1 on HEp-2 cells): 18%
- Viability (%) of HEp-2 cells, 10 ng/ml TNF-α + 100,000 ng/ml TNF antagonist (9 without antagonist) (TNF-R1 on HEp-2 cells): 86%
- Viability (%) of HEp-2 cells, 10 ng/ml TNF-α + 500,000 ng/ml TNF antagonist (9 without antagonist) (TNF-R1 on HEp-2 cells): 103%
- Viability (%) of L-M cells, 10 ng/ml TNF-α + 1,000 ng/ml TNF antagonist (17 without antagonist) (TNF-R1 on L-M cells): 43%
- Viability (%) of L-M cells, 10 ng/ml TNF-α + 10,000 ng/ml TNF antagonist (17 without antagonist) (TNF-R1 on L-M cells): 58%
- Viability (%) of L-M cells, 10 ng/ml TNF-α + 100,000 ng/ml TNF antagonist (17 without antagonist) (TNF-R1 on L-M cells): 61%
- Viability (%) of L-M cells, 10 ng/ml TNF-α + 500,000 ng/ml TNF antagonist (17 without antagonist) (TNF-R1 on L-M cells): 64%
- binding affinity relative to recombinant TNF-α [6]: ≥ 2 fold
- binding affinity relative to recombinant TNF-α (grade) [7]: ≤ 0.001 times that of recombinant TNF-α

Reference: patent US20100222258A1 (KABUSHIKI KAISHA HAYASHIBARA SEIBUTSU KAGAKU KENKYUJO, published 2010)
